For this assay, the target named is HLA class I (human). The assay is described as follows: cell-based or functional assay.

Substance “W6/32, the class I-specific antibody, from hybridoma culture supernatants (ATCC: HB95)” displayed a reduction in HIV-1 envelope-specific CTL activity (PBMCs from LB, E:T 25:1, 1:4 dilution of W6/32 supernatant) of 73%; a specific lysis value with W6/32 (E:T 25:1) of 6.2%; a specific lysis value without W6/32 (E:T 25:1) of 23.2%.
